Positions of bridges follow the written chain, without caps; N, C: chain ends. Non-standard residues stand in square brackets, D forms with d. Primed or numbered codes have the meaning given here. PEG3″ = N-terminal PEG3 linker; FAM″ = 5,6-carboxyfluorescein; S5 = C=CCCC[C@](C)(N)C(=O)O; Nle = CCCC[C@H](N)C(=O)O

As usually defined, the Kd is the constant that tells how readily two partners part at equilibrium.

For assay [1], the target named is T1, MBP-tagged CORB (human, UniProt Q5S007 1672-1840).
T1 construct: range 1672-1840; Purified from E. coli BL21(DE3); also called C-terminal part of the COR domain; His6-MBP-tagged COR-B; not shown: N-terminal His6-MBP tag (pDEST-566)
Nature of the assay: fluorescence polarization, 10 nM FAM-labeled peptide.

The target in assay [2] is T2, MBP-tagged RocCOR LRRK2 protein (human, UniProt Q5S007 1293-1840, limits assumed).
T2 construct: domain: RocCOR; Purified from E. coli; FP done in the presence of GTP and MgCl2; also called His6-MBP-tagged RocCOR; not shown: N-terminal His6-MBP tag
T2 sequence (looked up): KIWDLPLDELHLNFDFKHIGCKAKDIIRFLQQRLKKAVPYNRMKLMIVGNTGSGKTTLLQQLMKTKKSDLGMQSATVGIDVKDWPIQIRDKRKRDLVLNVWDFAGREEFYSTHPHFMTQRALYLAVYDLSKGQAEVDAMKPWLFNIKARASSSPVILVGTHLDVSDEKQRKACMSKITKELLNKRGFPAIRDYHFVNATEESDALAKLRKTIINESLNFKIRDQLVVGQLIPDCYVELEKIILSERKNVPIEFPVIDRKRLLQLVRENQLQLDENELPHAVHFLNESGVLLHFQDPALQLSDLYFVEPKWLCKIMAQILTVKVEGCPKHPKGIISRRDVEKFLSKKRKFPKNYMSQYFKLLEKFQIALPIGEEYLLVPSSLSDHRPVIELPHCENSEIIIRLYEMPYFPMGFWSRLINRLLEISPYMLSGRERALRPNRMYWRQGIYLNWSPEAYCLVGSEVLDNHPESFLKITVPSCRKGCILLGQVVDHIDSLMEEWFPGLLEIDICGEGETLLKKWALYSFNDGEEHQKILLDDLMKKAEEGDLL
Described as above.

For assay [3], the target named is T1, MBP-tagged CORB. Briefly: fluorescence polarization, 10 nM FAM-labeled peptide, MBP-CORB titrated. The procedure: Fluorescence Polarization (FP) Assays. […] Each FAM-labeled peptide was plated at a final in-well concentration of 10 nM in 384-well microtiter plates. 1:2 dilutions of the protein were then performed from a concentration range of 5 μM to 1 nM. For each peptide: protein interaction, a range of at least 10 protein concentrations was examined, and each concentration was performed in triplicate. The assay was performed in FP buffer (20 mM MOPS pH 7, 150 mM NaCl, and 0.005% CHAPS) at room temperature. The peptide:protein mixture was incubated at room temperature for 2 hours with readings taken every 30 minutes. The final readings were obtained at 2 hours.
The binding affinities of these two peptides towards LRRK2 was measured using fluorescence polarization (FP). Two MBP-tagged protein constructs, CORB and RocCOR, were purified and plated in concentrations ranging from 5 μM to 1 nM along with 10 nM FAM-labeled peptide, 2 mM GTP and 10 mM MgCl_2.

B1: FAM-labeled LCIP1 scramble (peptide)
peptide: {FAM″-PEG3″}-GKWEK[S5]GEL[S5]KL-NH2
modifications: staple 6-10
notes: Scrambled control of LCIP1; also called scrambled peptide control
With B1, the binding result with MBP-tagged CORB [1] was “no binding (tested: protein 5 µM to 1 nM)”.

B2: FAM-labeled LRIP4 scramble (peptide)
peptide: {FAM″-PEG3″}-Q[Nle]DKAESKNKERKLC[S5]TIK[S5]-NH2
modifications: staple 16-20
notes: Scrambled control of LRIP4; also called scrambled peptide control
On to B2, for which the binding result in assay [2] was “no binding (tested: protein 5 µM to 1 nM)”.

Regarding {FAM″-PEG3″}-KGEGE[S5]LLK[S5]WK-NH2 (staple 6-10, 16) [FAM-labeled LCIP1], the dissociation constant Kd in the assay with MBP-tagged CORB [3] worked out at 1000 nM.

Source of the values: patent US12565520B2, “Chemically-stabilized allosteric modulators of leucine-rich repeat kinase 2 (LRRK2)” (UNIVERSITY OF GEORGIA RESEARCH FOUNDATION, INC., priority 2020, dated 2026).
